# Data published in the supplement of paper PMC10724198.
# ± gives the standard deviation of the averaged measurements.
# Tests used:
# [1] = tested on: Saccharomyces cerevisiae; experiment: protein stability index of tFT-peptide fusion (C-terminal peptide) (PSI (0-1 scale)); higher = more stable (slower turnover); settings: genetic background: wild type; temperature: 30 C
# [2] = tested on: Saccharomyces cerevisiae; experiment: as above
# Protocol: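 MPS profiling in S. cerevisiae of the tFT-X12 degron library: putative degron peptides plus stable controls, 12 aa, fused to the C-terminus of a sfGFP-mCherry timer. Cells are FACS-sorted into 8 mCherry/sfGFP bins and deep-sequenced. PSI runs from 0 (unstable) to 1 (stable). Backgrounds are wild type, das1Δ and doa10Δ at 30 °C, and wild type, das1Δ, cdc34-1 and cdc53-1 at 37 °C; 2-3 technical replicates each.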
# [3] = genetic background: cdc34-1, temperature: 37 C
# [4] = genetic background: cdc53-1, temperature: 37 C
# [5] = genetic background: das1 deletion, temperature: 30 C
# [6] = genetic background: das1 deletion, temperature: 37 C
# [7] = genetic background: doa10 deletion, temperature: 30 C
# [8] = genetic background: wild type, temperature: 30 C
# [9] = genetic background: wild type, temperature: 37 C
# 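Note: PSI is a weighted mean of sequencing reads over stability bins, variants kept only with over 10 reads, mCherry proximal and sfGFP distal, peptide attached via GGGS linker.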
Sequence,protein stability index [1],"protein stability index [2, 3]","protein stability index [2, 4]","protein stability index [2, 5]","protein stability index [2, 6]","protein stability index [2, 7]","protein stability index [2, 8]","protein stability index [2, 9]"
FFSCFFFSVLYR,0.377 ± 0.035,0.2699 ± 0.00059,0.214 ± 0.018,0.302 ± 0.042,0.425 ± 0.031,0.469 ± 0.022,0.302 ± 0.029,0.384 ± 0.018
SLEACYCFVVLV,0.2744 ± 0.00036,0.187 ± 0.0034,0.199 ± 0.0087,0.214 ± 0.028,0.291 ± 0.0068,0.175 ± 0.019,0.186 ± 0.023,0.25 ± 0.015
VFILGFLCLLFF,0.355 ± 0.036,0.403 ± 0.03,0.428 ± 0.014,0.342 ± 0.017,0.497 ± 0.077,0.362 ± 0.045,0.334 ± 0.024,0.445 ± 0.054
LFFASFLLIGPF,0.393 ± 0.0098,0.4091 ± 0.0033,0.4803 ± 0.003,0.375 ± 0.039,0.499 ± 0.014,0.354 ± 0.03,0.321 ± 0.037,0.483 ± 0.041
SRPGRWRLYYVS,0.401 ± 0.098,0.6867 ± 0.0067,0.802 ± 0.016,0.679 ± 0.0079,0.758 ± 0.011,0.38 ± 0.023,0.383 ± 0.022,0.54 ± 0.0037
FFCSLIISRFLL,0.214 ± 0.04,0.542 ± 0.035,0.608 ± 0.014,0.511 ± 0.018,0.62 ± 0.02,0.139 ± 0.012,0.168 ± 0.033,0.299 ± 0.0054
WFLLILFSAFAV,0.436 ± 0.0045,0.433 ± 0.021,0.463 ± 0.036,0.352 ± 0.022,0.501 ± 0.0097,0.314 ± 0.0041,0.3465 ± 0.003,0.471 ± 0.0049
SLLLLSLCRFVG,0.372 ± 0.026,0.626 ± 0.022,0.686 ± 0.017,0.6 ± 0.012,0.702 ± 0.023,0.194 ± 0.02,0.232 ± 0.036,0.384 ± 0.013
FLLLVVYVSLYS,0.216 ± 0.1,0.143 ± 0.0068,0.207 ± 0.039,0.183 ± 0.033,0.2973 ± 0.00095,0.133 ± 0.0063,0.156 ± 0.032,0.224 ± 0.034
VFSFWVLCEVSV,0.04525 ± 0.0004,0.0333 ± 0.0097,0.0546 ± 0.015,0.0315 ± 0.0099,0.0841 ± 0.013,0.0219 ± 0.0031,0.0221 ± 0.0057,0.072 ± 0.02
GLGVIFFLLGYG,0.429 ± 0.015,0.469 ± 0.028,0.507 ± 0.023,0.336 ± 0.033,0.5631 ± 0.0018,0.292 ± 0.019,0.327 ± 0.016,0.551 ± 0.051
LLCRVSRTRILC,0.227 ± 0.013,0.478 ± 0.026,0.533 ± 0.0097,0.426 ± 0.021,0.58 ± 0.0099,0.104 ± 0.012,0.128 ± 0.013,0.166 ± 0.022
EWVGIFRGVSVF,0.371 ± 0.0074,0.2846 ± 0.0011,0.293 ± 0.0067,0.256 ± 0.032,0.4158 ± 0.003,0.224 ± 0.02,0.267 ± 0.022,0.374 ± 0.0073
PAPQAVRIFSLY,0.428 ± 0.046,0.62 ± 0.089,0.74 ± 0.026,0.653 ± 0.044,0.744 ± 0.026,0.179 ± 0.01,0.183 ± 0.022,0.39 ± 0.019
VYVSRTRPFSLY,0.428 ± 0.031,0.682 ± 0.052,0.7141 ± 0.0054,0.63 ± 0.011,0.728 ± 0.022,0.33 ± 0.0094,0.3687 ± 0.0034,0.573 ± 0.007
RWCLWGTRVWVS,0.147 ± 0.028,0.439 ± 0.04,0.522 ± 0.037,0.444 ± 0.021,0.591 ± 0.029,0.103 ± 0.0031,0.111 ± 0.022,0.153 ± 0.03
VFWVVFRALVGD,0.233 ± 0.022,0.191 ± 0.015,0.29497 ± 0.00028,0.217 ± 0.018,0.269 ± 0.02,0.222 ± 0.013,0.212 ± 0.0029,0.26 ± 0.0051
GKVGGRMWVWRV,0.257 ± 0.0031,0.592 ± 0.041,0.73 ± 0.015,0.63 ± 0.013,0.72579 ± 0.00022,0.116 ± 0.014,0.129 ± 0.019,0.2406 ± 0.0022
EWLITLRKCGVA,0.463 ± 0.048,0.606 ± 0.03,0.613 ± 0.011,0.478 ± 0.026,0.6107 ± 0.006,0.397 ± 0.0075,0.423 ± 0.027,0.533 ± 0.006
LFLLYVLVSLFV,0.281 ± 0.045,0.288 ± 0.019,0.347 ± 0.064,0.267 ± 0.048,0.369 ± 0.019,0.222 ± 0.0045,0.251 ± 0.025,0.39 ± 0.052

Sequence,protein stability index [1],"protein stability index [2, 3]","protein stability index [2, 4]","protein stability index [2, 5]","protein stability index [2, 6]","protein stability index [2, 7]","protein stability index [2, 8]","protein stability index [2, 9]"
TLDWKFGRGGIG,0.375 ± 0.0046,0.315 ± 0.0073,0.4083 ± 0.0019,0.348 ± 0.017,0.406 ± 0.017,0.33 ± 0.0094,0.338 ± 0.01,0.4041 ± 0.0037
LFLFVGCSVRRL,0.4951 ± 0.0047,0.528 ± 0.023,0.58092 ± 0.00029,0.392 ± 0.034,0.599 ± 0.021,0.374 ± 0.0049,0.391 ± 0.014,0.5744 ± 0.0024
VVRVIWCQFSCF,0.334 ± 0.0057,0.494 ± 0.036,0.545 ± 0.016,0.414 ± 0.026,0.595 ± 0.017,0.208 ± 0.0071,0.234 ± 0.022,0.434 ± 0.027
TVLGRDFALSVC,0.4599 ± 0.00056,0.455 ± 0.0056,0.4916 ± 0.004,0.361 ± 0.046,0.543 ± 0.015,0.308 ± 0.0071,0.346 ± 0.023,0.501 ± 0.0061
RRVPVHIHFSLF,0.291 ± 0.03,0.627 ± 0.0066,0.707 ± 0.028,0.691 ± 0.014,0.732 ± 0.039,0.156 ± 0.0052,0.194 ± 0.021,0.393 ± 0.033
CVARWPRPAGSS,0.723 ± 0.026,0.699 ± 0.035,0.735 ± 0.047,0.655 ± 0.015,0.729 ± 0.0097,0.641 ± 0.017,0.673 ± 0.035,0.715 ± 0.015
VIAFFSVLKRYV,0.421 ± 0.016,0.641 ± 0.0088,0.704 ± 0.011,0.58 ± 0.037,0.712 ± 0.0078,0.199 ± 0.0083,0.241 ± 0.0073,0.465 ± 0.0052
EVTRMLRVVREI,0.456 ± 0.065,0.689 ± 0.035,0.761 ± 0.032,0.631 ± 0.026,0.768 ± 0.016,0.322 ± 0.0093,0.38 ± 0.032,0.588 ± 0.02
SLIFRVGKFKSL,0.137 ± 0.021,0.5892 ± 0.0014,0.6968 ± 0.0048,0.654 ± 0.019,0.738 ± 0.012,0.0628 ± 0.011,0.0746 ± 0.017,0.101 ± 0.0098
FCLFFFPSLFFF,0.371 ± 0.016,0.57 ± 0.11,0.538 ± 0.024,0.529 ± 0.042,0.604 ± 0.023,0.333 ± 0.012,0.295 ± 0.026,0.443 ± 0.017
VCTFLLVSFFLS,0.326 ± 0.017,0.223 ± 0.0027,0.315 ± 0.064,0.237 ± 0.028,0.423 ± 0.012,0.186 ± 0.019,0.185 ± 0.017,0.33 ± 0.0099
VFIPFGFCLCFV,0.373 ± 0.0028,0.408 ± 0.012,0.4114 ± 0.0039,0.317 ± 0.019,0.466 ± 0.0087,0.318 ± 0.015,0.295 ± 0.017,0.4401 ± 0.0027
LLISPFLFLLVC,0.0803 ± 0.024,0.0704 ± 0.043,0.0371 ± 0.002,0.0907 ± 0.02,0.0981 ± 0.022,0.0594 ± 0.018,0.0605 ± 0.014,0.0515 ± 0.00088
FFFFFLLFFLRV,0.303 ± 0.04,0.229 ± 0.027,0.247 ± 0.007,0.303 ± 0.046,0.343 ± 0.018,0.313 ± 0.005,0.233 ± 0.018,0.313 ± 0.0043
FVSFTVSFSVVV,0.379 ± 0.032,0.296 ± 0.018,0.38 ± 0.031,0.334 ± 0.025,0.417 ± 0.01,0.357 ± 0.031,0.342 ± 0.0055,0.382 ± 0.0063
CSFELSVCLMLR,0.188 ± 0.032,0.063 ± 0.0088,0.07758 ± 0.00064,0.133 ± 0.013,0.198 ± 0.016,0.557 ± 0.015,0.107 ± 0.007,0.1855 ± 0.0013
TKDFVIKKTKIS,0.169 ± 0.021,0.537 ± 0.017,0.7393 ± 0.0047,0.641 ± 0.019,0.737 ± 0.022,0.135 ± 0.03,0.159 ± 0.03,0.236 ± 0.028
SIFFLVPLVFLS,0.214 ± 0.043,0.4422 ± 0.0014,0.532 ± 0.027,0.408 ± 0.035,0.584 ± 0.015,0.134 ± 0.0055,0.141 ± 0.019,0.216 ± 0.055
ILRKTAFRLRVL,0.397 ± 0.025,0.623 ± 0.047,0.635 ± 0.0073,0.525 ± 0.011,0.658 ± 0.023,0.228 ± 0.016,0.264 ± 0.024,0.376 ± 0.01
